The experiment has as its target VHH-72-C13 (llama). In words: electrochemical titration (differential pulse voltammetry).

“And” between values parts separate entries of the source, which are not always exact repeats. Identical values can stand only once.

VHH-72-C13 (llama), sequence (VHH, as listed by the source): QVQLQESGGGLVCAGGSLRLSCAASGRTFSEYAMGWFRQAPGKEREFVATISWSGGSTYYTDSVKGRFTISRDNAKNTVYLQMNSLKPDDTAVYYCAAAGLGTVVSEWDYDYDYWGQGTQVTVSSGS

As for “SARS-CoV-2 spike receptor binding domain (RBD), recombinant (from UniProt P0DTC2 319-541) (domain or fragment)”, the half saturation point (Langmuir isotherm) was 3.7 nM and 7.5 nM.

Values taken from paper PMC9126950.
